Test results: PMC3118927
Substitutions are numbered along the chain they refer to. Read-outs that look alike come from different tables or passages of the source.

B1: PrFHOX (dsDNA)
DNA 1: TGATGGCTTCCCTTATGATTTTTTGAATAATTTCTTTA
DNA 2: TATAAAGAAATTATTCAAAAAATCATAAGGGAAGCCAT
B2: PrFWT (dsDNA)
DNA 1: B1 DNA 1 with T22A
DNA 2: B1 DNA 2 with A19T
B3: PrFEXD (dsDNA)
DNA 1: B1 DNA 1 with G17A, A18G, T22A
DNA 2: B1 DNA 2 with A19T, T23C, C24T
B4: fkh[250con] (dsDNA)
DNA 1: GATCTCAATGTCAAGATTTATGGCCAGCTGTGGGACGA
DNA 2: CCTCGTCCCACAGCTGGCCATAAATCTTGACATTGAGA

Tests used:
Test in all cases: EMSA
Exd (Extradenticle);Ubx [1] = molecular target: T1, Exd (Extradenticle);Ubx (Drosophila melanogaster?;Drosophila …, UniProt P40427;P83949 1-376;56-389, |)
T1 sequence (P40427 whole entry, chain 1 of 2): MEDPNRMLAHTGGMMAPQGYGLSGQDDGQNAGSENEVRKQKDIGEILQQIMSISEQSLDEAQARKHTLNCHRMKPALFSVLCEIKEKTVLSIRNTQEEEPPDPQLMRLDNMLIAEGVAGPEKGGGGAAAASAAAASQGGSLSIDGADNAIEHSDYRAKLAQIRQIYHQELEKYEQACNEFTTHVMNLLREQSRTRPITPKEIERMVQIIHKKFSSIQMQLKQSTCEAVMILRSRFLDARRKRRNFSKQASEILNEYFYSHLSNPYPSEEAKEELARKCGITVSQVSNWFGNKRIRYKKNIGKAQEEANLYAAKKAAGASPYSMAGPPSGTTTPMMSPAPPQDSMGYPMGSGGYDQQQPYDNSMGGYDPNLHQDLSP
T1 sequence (P83949 56-389, chain 2 of 2): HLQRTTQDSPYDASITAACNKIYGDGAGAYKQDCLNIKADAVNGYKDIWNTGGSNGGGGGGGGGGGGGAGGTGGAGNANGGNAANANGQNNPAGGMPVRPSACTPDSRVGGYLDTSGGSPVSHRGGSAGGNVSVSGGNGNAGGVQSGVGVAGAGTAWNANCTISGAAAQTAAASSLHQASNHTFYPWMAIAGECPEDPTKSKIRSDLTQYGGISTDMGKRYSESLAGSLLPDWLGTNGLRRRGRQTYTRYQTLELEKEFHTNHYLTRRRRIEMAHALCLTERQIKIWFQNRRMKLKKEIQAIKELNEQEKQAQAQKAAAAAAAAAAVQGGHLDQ

Exd (Extradenticle);Ubx [2] = molecular target: T1, Exd (Extradenticle);Ubx; remark: listed apart in the source
Exd (Extradenticle);Ubx [3] = molecular target: T1, Exd (Extradenticle);Ubx; remark: listed apart in the source

| Binder | binding result (Exd (Extradenticle);Ubx [1]) | also measured |
| --- | --- | --- |
| B1 | no binding |  |
| B2 |  | binding result (Exd (Extradenticle);Ubx [2]): binds |
| B3 | no binding |  |
| B4 |  | binding result (Exd (Extradenticle);Ubx [3]): binds |
